B1: NRC3_wobSeed28_DR1_T8G_o1 (dsDNA)
DNA 1: GCCCTACGGGGCCAAAGGTCATTGATTCCAATGCTCGCGATTGACAGCGTAGAATGAAGG
DNA 2: CCTTCATTCTACGCTGTCAATCGCGAGCATTGGAATCAATGACCTTTGGCCCCGTAGGGC
B2: NRC3_wobSeed37_DR1_T5G_o1 (dsDNA)
DNA 1: GCCGGCCAAGGTCAAAGGTCAGTGAAGAGATGACGGGCGATTGACAGCGTAGAATGAAGG
DNA 2: CCTTCATTCTACGCTGTCAATCGCCCGTCATCTCTTCACTGACCTTTGACCTTGGCCGGC
B3: NRC3_random_hg19_254_o1 (dsDNA)
DNA 1: GCGCCTCTGGAATGTAAACTCCAGCCTGGCATGTATGCGATTGACAGCGTAGAATGAAGG
DNA 2: CCTTCATTCTACGCTGTCAATCGCATACATGCCAGGCTGGAGTTTACATTCCAGAGGCGC
B4: NRC3_random_hg19_304_o1 (dsDNA)
DNA 1: GCGGCTGTTAGCGCTCATCTCTGTGTGCCTTCACAGGCGATTGACAGCGTAGAATGAAGG
DNA 2: CCTTCATTCTACGCTGTCAATCGCCTGTGAAGGCACACAGAGATGAGCGCTAACAGCCGC
B5: NRC3_random_hg19_398_o1 (dsDNA)
DNA 1: GCAAGAAACAACAAACTTAGTACCTAGAAACAAGAGGCGATTGACAGCGTAGAATGAAGG
DNA 2: CCTTCATTCTACGCTGTCAATCGCCTCTTGTTTCTAGGTACTAAGTTTGTTGTTTCTTGC
B6: NRC3_random_hg19_403_o1 (dsDNA)
DNA 1: GCATCTCCTGCCTCAGCCTCCTGAATAGGTGGGACTGCGATTGACAGCGTAGAATGAAGG
DNA 2: CCTTCATTCTACGCTGTCAATCGCAGTCCCACCTATTCAGGAGGCTGAGGCAGGAGATGC
B7: NRC3_wobSeed37_DR1_G4A_o1 (dsDNA)
DNA 1: B2 DNA 1 with G4A, G5T
DNA 2: B2 DNA 2 with C56A, C57T
B8: NRC3_wobSeed134_DR5_A9C_o1 (dsDNA)
DNA 1: GCGCTGCTCGGTCAACTGATGGTCAGCTAAAGCTCGGCGATTGACAGCGTAGAATGAAGG
DNA 2: CCTTCATTCTACGCTGTCAATCGCCGAGCTTTAGCTGACCATCAGTTGACCGAGCAGCGC
B9: NRC3_random_hg19_271_o1 (dsDNA)
DNA 1: GCCTCCCTCCCATCGCCTGAACCTGCTGGAATGAGCGCGATTGACAGCGTAGAATGAAGG
DNA 2: CCTTCATTCTACGCTGTCAATCGCGCTCATTCCAGCAGGTTCAGGCGATGGGAGGGAGGC
B10: NRC3_wobSeed134_DR5_G26A_o1 (dsDNA)
DNA 1: B8 DNA 1 with C9A, G26A
DNA 2: B8 DNA 2 with C35T, G52T
B11: NRC3_random_hg19_308_o1 (dsDNA)
DNA 1: GCATGAACCACTTGAAGGGTGTGGCCTCCATCTTGCGCGATTGACAGCGTAGAATGAAGG
DNA 2: CCTTCATTCTACGCTGTCAATCGCGCAAGATGGAGGCCACACCCTTCAAGTGGTTCATGC
B12: NRC3_random_hg19_60_o1 (dsDNA)
DNA 1: GCGTGCTCACATGTCACATTCTGGTGATTCTTGCAAGCGATTGACAGCGTAGAATGAAGG
DNA 2: CCTTCATTCTACGCTGTCAATCGCTTGCAAGAATCACCAGAATGTGACATGTGAGCACGC
B13: NRC3_wobSeed51_DR2_G23A_o1 (dsDNA)
DNA 1: GCCCTCGGAGGACAGAAGGTCAAAGCTGTCCGCTTTGCGATTGACAGCGTAGAATGAAGG
DNA 2: CCTTCATTCTACGCTGTCAATCGCAAAGCGGACAGCTTTGACCTTCTGTCCTCCGAGGGC
B14: NRC3_wobSeed82_DR3_T27A_o1 (dsDNA)
DNA 1: GCATCGAAAGGTCGACGAGGTGAGTAAACACCGTTTGCGATTGACAGCGTAGAATGAAGG
DNA 2: CCTTCATTCTACGCTGTCAATCGCAAACGGTGTTTACTCACCTCGTCGACCTTTCGATGC
B15: NRC3_wobSeed140_DR5_A9G_o1 (dsDNA)
DNA 1: GCAGAATGGGGTTATACGTAGATCAGGGAAGAAAGTGCGATTGACAGCGTAGAATGAAGG
DNA 2: CCTTCATTCTACGCTGTCAATCGCACTTTCTTCCCTGATCTACGTATAACCCCATTCTGC
B16: NRC3_random_hg19_243_o1 (dsDNA)
DNA 1: GCCAAATGCTAGCAGAAGGCAAGAAACAACTAAGATGCGATTGACAGCGTAGAATGAAGG
DNA 2: CCTTCATTCTACGCTGTCAATCGCATCTTAGTTGTTTCTTGCCTTCTGCTAGCATTTGGC
B17: NRC3_random_hg19_214_o1 (dsDNA)
DNA 1: GCATCCGTTCCTTGGAGGGAGTCTGCAGACTGGCTGGCGATTGACAGCGTAGAATGAAGG
DNA 2: CCTTCATTCTACGCTGTCAATCGCCAGCCAGTCTGCAGACTCCCTCCAAGGAACGGATGC
B18: NRC3_random_hg19_362_o1 (dsDNA)
DNA 1: GCGCCTTCTGCACCTCCTCAGTCCCTCTCCCTTTCCGCGATTGACAGCGTAGAATGAAGG
DNA 2: CCTTCATTCTACGCTGTCAATCGCGGAAAGGGAGAGGGACTGAGGAGGTGCAGAAGGCGC
B19: NRC3_random_hg19_349_o1 (dsDNA)
DNA 1: GCAGTGTATGCTAAACACCTTCACTTACCTTCCTCAGCGATTGACAGCGTAGAATGAAGG
DNA 2: CCTTCATTCTACGCTGTCAATCGCTGAGGAAGGTAAGTGAAGGTGTTTAGCATACACTGC
B20: NRC3_wobSeed136_DR5_C23T_o1 (dsDNA)
DNA 1: GCTAGCCTAGGTCATTCAGGGGTCAGTATAGAAAGCGCGATTGACAGCGTAGAATGAAGG
DNA 2: CCTTCATTCTACGCTGTCAATCGCGCTTTCTATACTGACCCCTGAATGACCTAGGCTAGC
B21: NRC3_wobSeed122_DR5_T9A_o1 (dsDNA)
DNA 1: GCGCTAGTAGGTCAGTAAAAGGTCACACACCGGTCGGCGATTGACAGCGTAGAATGAAGG
DNA 2: CCTTCATTCTACGCTGTCAATCGCCGACCGGTGTGTGACCTTTTACTGACCTACTAGCGC
B22: NRC3_random_hg19_146_o1 (dsDNA)
DNA 1: GCGCCTCTAGGTCTTTGAGGAATTGCCACACTGTCTGCGATTGACAGCGTAGAATGAAGG
DNA 2: CCTTCATTCTACGCTGTCAATCGCAGACAGTGTGGCAATTCCTCAAAGACCTAGAGGCGC
B23: NRC3_random_hg19_489_o1 (dsDNA)
DNA 1: GCAACAAAGCCTGTATGACAGCACATCTGTGTACAGGCGATTGACAGCGTAGAATGAAGG
DNA 2: CCTTCATTCTACGCTGTCAATCGCCTGTACACAGATGTGCTGTCATACAGGCTTTGTTGC
B24: NRC3_wobSeed27_DR1_G17C_o1 (dsDNA)
DNA 1: GCACTCGGAGGACAAACGTCAGAGCTACGCCAGTGAGCGATTGACAGCGTAGAATGAAGG
DNA 2: CCTTCATTCTACGCTGTCAATCGCTCACTGGCGTAGCTCTGACGTTTGTCCTCCGAGTGC

Positions count from the first letter of the chain named.

PPARa:RXRa, sequence (Q07869 whole entry, chain 1 of 2): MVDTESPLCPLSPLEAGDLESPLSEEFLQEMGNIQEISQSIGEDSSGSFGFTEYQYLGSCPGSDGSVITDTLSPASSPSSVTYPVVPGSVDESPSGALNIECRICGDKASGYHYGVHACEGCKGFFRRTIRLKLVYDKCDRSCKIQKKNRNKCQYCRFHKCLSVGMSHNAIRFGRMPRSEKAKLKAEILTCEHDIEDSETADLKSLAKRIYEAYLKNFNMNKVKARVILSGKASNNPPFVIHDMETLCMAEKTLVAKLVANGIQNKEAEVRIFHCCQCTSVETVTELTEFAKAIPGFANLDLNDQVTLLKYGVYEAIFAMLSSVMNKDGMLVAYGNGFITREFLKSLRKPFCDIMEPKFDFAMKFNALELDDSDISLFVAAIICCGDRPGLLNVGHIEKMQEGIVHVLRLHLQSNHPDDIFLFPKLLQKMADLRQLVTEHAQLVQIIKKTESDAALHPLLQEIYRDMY
PPARa:RXRa, sequence (P19793 whole entry, chain 2 of 2): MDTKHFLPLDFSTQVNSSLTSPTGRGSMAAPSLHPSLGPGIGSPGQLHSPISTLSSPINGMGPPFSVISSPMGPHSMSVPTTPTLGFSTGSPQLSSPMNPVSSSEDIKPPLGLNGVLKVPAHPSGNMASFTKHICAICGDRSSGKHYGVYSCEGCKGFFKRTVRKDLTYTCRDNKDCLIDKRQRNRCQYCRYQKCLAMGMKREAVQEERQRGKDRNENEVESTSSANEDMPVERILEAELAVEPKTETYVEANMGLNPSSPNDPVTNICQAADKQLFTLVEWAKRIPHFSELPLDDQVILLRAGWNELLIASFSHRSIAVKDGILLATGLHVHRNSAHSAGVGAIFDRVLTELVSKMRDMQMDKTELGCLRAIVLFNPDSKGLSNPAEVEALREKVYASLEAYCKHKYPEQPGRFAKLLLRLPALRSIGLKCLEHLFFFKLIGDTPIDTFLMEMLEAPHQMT
RARa:RXRa, sequence (P10276 whole entry, chain 1 of 2): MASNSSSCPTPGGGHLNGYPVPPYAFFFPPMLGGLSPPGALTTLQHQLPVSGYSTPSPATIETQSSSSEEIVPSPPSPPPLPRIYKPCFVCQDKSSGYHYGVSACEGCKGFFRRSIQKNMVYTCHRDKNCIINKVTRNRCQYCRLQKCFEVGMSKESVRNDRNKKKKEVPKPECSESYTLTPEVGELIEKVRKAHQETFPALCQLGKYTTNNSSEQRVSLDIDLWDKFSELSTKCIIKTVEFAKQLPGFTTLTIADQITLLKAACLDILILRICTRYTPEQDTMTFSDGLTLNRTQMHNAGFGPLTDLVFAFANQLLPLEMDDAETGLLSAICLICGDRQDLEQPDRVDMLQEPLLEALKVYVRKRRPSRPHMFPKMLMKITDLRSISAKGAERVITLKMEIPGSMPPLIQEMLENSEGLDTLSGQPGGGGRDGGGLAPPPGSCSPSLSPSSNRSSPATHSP
RARa:RXRa, sequence (P19793 whole entry, chain 2 of 2): as the sequence (P19793 whole entry, chain 2 of 2) above
RXRa, sequence (P19793 whole entry): as the sequence (P19793 whole entry, chain 2 of 2) above

One data set has as its target RXRa (Homo sapiens, UniProt P19793). The data set is described as follows: no ligand; PBM; 180 nM; PBS pH 7.4, 2% milk, 0.02% Triton X-100, 1 mM DTT, BSA, 0.4 mg/ml salmon testes DNA. As to conditions: tags: His cleaved; chain copies: 2; label: surface-attached array probe.
B1: the binding signal was 7.78 PBM z-score against 500 random probes.

In the case of B2, the binding signal was 10.7 PBM z-score against 500 random probes.

The target of a further data set is RARb:RXRa (Homo sapiens, UniProt P10826;P19793 full;full). The data set is described as follows: no ligand; PBM; 270 nM : 90 nM RXRa; PBS pH 7.4, 2% milk, 0.02% Triton X-100, 1 mM DTT, BSA, 0.4 mg/ml salmon testes DNA. As to conditions: tags: His kept;His cleaved; copies: 1;1; label: surface-attached array probe. Put shortly: (§1)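 The probes on custom Agilent 4×180K protein-binding microarrays were double-stranded, with 34-nt variable regions bearing direct-repeat seeds, single-nucleotide variants, half-site ablations and random human genomic background sequences. Incubation lasted 1 h with ligand-free nuclear receptor dimers in PBS pH 7.4, 2% milk, 0.02% Triton X-100, 1 mM DTT, 0.2 mg/mL BSA and 0.4 mg/ml salmon testes DNA. Antibodies against each partner (one per run) detected bound dimers, and fluorescence scans were regression-normalized. Binding z-scores take the random background probes as reference.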
RARb:RXRa, sequence (P10826 whole entry, chain 1 of 2): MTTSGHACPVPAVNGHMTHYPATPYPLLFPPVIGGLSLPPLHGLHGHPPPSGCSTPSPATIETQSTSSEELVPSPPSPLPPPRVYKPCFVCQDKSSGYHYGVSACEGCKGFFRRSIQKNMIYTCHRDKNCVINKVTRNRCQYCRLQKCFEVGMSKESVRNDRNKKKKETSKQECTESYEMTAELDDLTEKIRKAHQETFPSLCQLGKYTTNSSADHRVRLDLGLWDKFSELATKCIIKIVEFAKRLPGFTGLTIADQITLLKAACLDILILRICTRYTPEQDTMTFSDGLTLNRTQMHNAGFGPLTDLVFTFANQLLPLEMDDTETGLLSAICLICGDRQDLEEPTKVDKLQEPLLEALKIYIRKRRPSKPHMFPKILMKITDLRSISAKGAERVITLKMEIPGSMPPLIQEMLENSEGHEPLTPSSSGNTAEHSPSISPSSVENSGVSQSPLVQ
RARb:RXRa, sequence (P19793 whole entry, chain 2 of 2): as the sequence (P19793 whole entry, chain 2 of 2) above
Turning to B3, the binding signal is -0.34 PBM z-score against 500 random probes.

As to B4, the binding signal was -1.19 PBM z-score against 500 random probes.

Take B5: the binding signal was -0.22 PBM z-score against 500 random probes.

On to B6, for which the binding signal was -1.01 PBM z-score against 500 random probes.

In the case of B7, the binding signal was 6.38 PBM z-score against 500 random probes.

The next data set has as its target PPARa:RXRa (Homo sapiens, UniProt Q07869;P19793 full;full). Described as above. As to conditions: tags: GST kept;His cleaved; copies: 1;1; label: surface-attached array probe. Put shortly: as §1
As for B8, the binding signal was 0.3 PBM z-score against 500 random probes.

As to B7, the binding signal was 7.54 PBM z-score against 500 random probes.

As for B9, the binding signal is 0.08 PBM z-score against 500 random probes.

The target of a further data set is FXR:RXRa (Homo sapiens, UniProt Q96RI1;P19793 full;full). The data set is described as above. As to conditions: tags: His kept;His cleaved; copies: 1;1; label: surface-attached array probe. Put shortly: as §1
FXR:RXRa, sequence (Q96RI1 whole entry, chain 1 of 2): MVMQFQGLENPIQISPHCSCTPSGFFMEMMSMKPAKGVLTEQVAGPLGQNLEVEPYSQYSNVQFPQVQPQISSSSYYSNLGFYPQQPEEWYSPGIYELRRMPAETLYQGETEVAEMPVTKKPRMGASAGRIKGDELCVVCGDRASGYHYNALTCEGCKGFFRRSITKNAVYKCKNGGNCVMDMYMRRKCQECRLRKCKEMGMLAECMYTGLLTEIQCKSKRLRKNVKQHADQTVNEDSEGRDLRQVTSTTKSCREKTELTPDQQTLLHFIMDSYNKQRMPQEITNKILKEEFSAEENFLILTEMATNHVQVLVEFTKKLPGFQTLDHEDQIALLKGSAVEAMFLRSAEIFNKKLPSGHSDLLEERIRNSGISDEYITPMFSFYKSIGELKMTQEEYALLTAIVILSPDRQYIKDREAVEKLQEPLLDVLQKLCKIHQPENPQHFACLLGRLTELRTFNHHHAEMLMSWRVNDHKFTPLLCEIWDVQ
FXR:RXRa, sequence (P19793 whole entry, chain 2 of 2): as the sequence (P19793 whole entry, chain 2 of 2) above
Consider B10, for which the binding signal was 4.04 PBM z-score against 500 random probes.

Turning to B11, the binding signal was -0.1 PBM z-score against 500 random probes.

Consider B12, for which the binding signal was -0.25 PBM z-score against 500 random probes.

Take B13: the binding signal was 3.12 PBM z-score against 500 random probes.

For the molecule B14, the binding signal is 4.45 PBM z-score against 500 random probes.

With B15, the binding signal was 4.21 PBM z-score against 500 random probes.

Regarding B16, the binding signal was -0.92 PBM z-score against 500 random probes.

Consider B17, for which the binding signal was -0.76 PBM z-score against 500 random probes.

Another data set has as its target RARa:RXRa (Homo sapiens, UniProt P10276;P19793 full;full). The data set is described as above. Conditions: tags: His kept;His cleaved; copies: 1;1; label: surface-attached array probe. Put shortly:
as §1
For B18, the binding signal was 0.1 PBM z-score against 500 random probes.

For B10, the binding signal was 3.74 PBM z-score against 500 random probes.

Turning to B8, the binding signal was 0.23 PBM z-score against 500 random probes.

Regarding B19, the binding signal was -0.1 PBM z-score against 500 random probes.

With B20, the binding signal was 7.49 PBM z-score against 500 random probes.

Regarding B11, the binding signal was 0.27 PBM z-score against 500 random probes.

Take B3: the binding signal was -0.5 PBM z-score against 500 random probes.

Take B4: the binding signal is -1 PBM z-score against 500 random probes.

For B12, the binding signal was 0.05 PBM z-score against 500 random probes.

Turning to B5, the binding signal was 0.12 PBM z-score against 500 random probes.

Consider B13, for which the binding signal was 3.96 PBM z-score against 500 random probes.

On to B14, for which the binding signal was 3.55 PBM z-score against 500 random probes.

Consider B6, for which the binding signal is -0.6 PBM z-score against 500 random probes.

In the case of B1, the binding signal was 7.56 PBM z-score against 500 random probes.

With B21, the binding signal was 7.6 PBM z-score against 500 random probes.

Consider B15, for which the binding signal was 3.3 PBM z-score against 500 random probes.

Consider B7, for which the binding signal is 9.27 PBM z-score against 500 random probes.

With B2, the binding signal is 9.26 PBM z-score against 500 random probes.

Turning to B22, the binding signal is -0.8 PBM z-score against 500 random probes.

In the case of B23, the binding signal is -0.79 PBM z-score against 500 random probes.

As for B16, the binding signal is -0.38 PBM z-score against 500 random probes.

Regarding B17, the binding signal is -2.33 PBM z-score against 500 random probes.

Take B9: the binding signal was 0.16 PBM z-score against 500 random probes.

On to B24, for which the binding signal was -0.3 PBM z-score against 500 random probes.

The target of a further data set is RARg:RXRa (Homo sapiens, UniProt P13631;P19793 full;full). The description is as above. Conditions: tags: His kept;His cleaved; copies: 1;1; label: surface-attached array probe. Put shortly: as §1
RARg:RXRa, sequence (P13631 whole entry, chain 1 of 2): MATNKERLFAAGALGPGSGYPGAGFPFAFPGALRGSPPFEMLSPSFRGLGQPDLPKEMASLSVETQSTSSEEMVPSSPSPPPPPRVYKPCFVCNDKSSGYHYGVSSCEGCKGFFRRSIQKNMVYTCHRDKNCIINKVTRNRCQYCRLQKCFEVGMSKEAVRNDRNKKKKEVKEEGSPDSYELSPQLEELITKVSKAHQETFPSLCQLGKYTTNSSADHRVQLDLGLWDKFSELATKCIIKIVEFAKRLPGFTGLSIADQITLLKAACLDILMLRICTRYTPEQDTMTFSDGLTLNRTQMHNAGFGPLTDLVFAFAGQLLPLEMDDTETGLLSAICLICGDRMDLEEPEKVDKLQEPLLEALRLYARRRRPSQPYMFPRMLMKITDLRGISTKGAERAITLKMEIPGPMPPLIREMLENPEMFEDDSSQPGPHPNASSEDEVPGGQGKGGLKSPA
RARg:RXRa, sequence (P19793 whole entry, chain 2 of 2): as the sequence (P19793 whole entry, chain 2 of 2) above
On to B18, for which the binding signal was -0.73 PBM z-score against 500 random probes.

On to B19, for which the binding signal is 0.03 PBM z-score against 500 random probes.

For B20, the binding signal was 8.33 PBM z-score against 500 random probes.

Regarding B21, the binding signal was 7.87 PBM z-score against 500 random probes.

For B23, the binding signal was -0.12 PBM z-score against 500 random probes.

With B24, the binding signal is 0.21 PBM z-score against 500 random probes.
